In patent US20260139028A1 (University of California, published 2026):
Substitutions are numbered along the chain they refer to. Names and notes keep the numbering of the source. Values joined by “and” are separate entries in the source; they are usually repeats but may differ in a detail not shown here. Equal entries are not always repeated.

B1: C-type lectin domain of CD62P (P-selectin), wild type, residues 1-117 (ligand, not shown: small tags and cut ends)
chain: WTYHYSTKAYSWNISRKYCQNRYTDLVAIQNKNEIDYLNKVLPYYSSYYWIGIRKNNKTWTWVGTKKALTNEAENWADNEPNNKRNNEDCVEIYIKSPSAPGKWNDEHCLKKKHALC
notes: also called the lectin domain; CD62P lectin domain
B2: CD62P lectin domain mutant R16E/K17E, P16109 42-158 (ligand, not shown: small tags and cut ends)
chain: B1 chain with R16E, K17E

Assays:
[1] = molecular target: integrins on CHO cells (α5β1+ and αvβ3 low), PSGL-1 negative; assay: cell-based or functional assay
[2] = molecular target: T1, soluble recombinant integrin αIIbβ3 (UniProt P08514 32-993; P05106 27-718); assay: ELISA-type, coated proteins, soluble integrin
T1 construct: Bought (AgroBio), used at 1 µg/ml; also called soluble αIIbβ3

soluble integrin αvβ3 = molecular target: T2, soluble integrin αvβ3 (UniProt P06756 31-992; P05106 27-718); assay: ELISA-type, coated proteins, soluble integrin
T2 construct: Soluble integrin used at 1 µg/ml; also called soluble αvβ3
T2 sequence (P06756 31-992, chain 1 of 2): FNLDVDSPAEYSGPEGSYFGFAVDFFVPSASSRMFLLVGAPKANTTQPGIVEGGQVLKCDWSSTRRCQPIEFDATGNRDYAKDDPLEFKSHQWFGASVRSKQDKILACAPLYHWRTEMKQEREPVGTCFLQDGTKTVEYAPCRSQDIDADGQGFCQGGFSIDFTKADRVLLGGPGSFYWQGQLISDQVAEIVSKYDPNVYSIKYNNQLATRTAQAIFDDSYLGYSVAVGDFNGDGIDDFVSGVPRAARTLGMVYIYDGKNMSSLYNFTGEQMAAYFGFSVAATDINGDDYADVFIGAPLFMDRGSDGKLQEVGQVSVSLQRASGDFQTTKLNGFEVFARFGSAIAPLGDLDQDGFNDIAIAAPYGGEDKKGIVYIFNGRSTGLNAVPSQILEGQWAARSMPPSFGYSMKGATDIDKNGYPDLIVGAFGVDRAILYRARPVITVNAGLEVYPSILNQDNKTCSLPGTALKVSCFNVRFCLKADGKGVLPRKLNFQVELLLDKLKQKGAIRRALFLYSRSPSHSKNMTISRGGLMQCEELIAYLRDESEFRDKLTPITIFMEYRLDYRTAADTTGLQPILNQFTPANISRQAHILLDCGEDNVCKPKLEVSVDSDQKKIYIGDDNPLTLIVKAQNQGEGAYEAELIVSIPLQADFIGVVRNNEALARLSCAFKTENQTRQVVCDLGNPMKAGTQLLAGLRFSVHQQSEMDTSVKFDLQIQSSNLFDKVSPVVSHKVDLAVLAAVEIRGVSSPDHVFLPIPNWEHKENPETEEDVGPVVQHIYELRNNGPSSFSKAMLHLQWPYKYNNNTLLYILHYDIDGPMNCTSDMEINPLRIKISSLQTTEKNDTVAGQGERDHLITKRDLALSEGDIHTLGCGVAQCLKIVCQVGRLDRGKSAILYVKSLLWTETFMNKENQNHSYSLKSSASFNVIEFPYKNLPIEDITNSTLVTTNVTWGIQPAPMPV
T2 sequence (P05106 27-718, chain 2 of 2): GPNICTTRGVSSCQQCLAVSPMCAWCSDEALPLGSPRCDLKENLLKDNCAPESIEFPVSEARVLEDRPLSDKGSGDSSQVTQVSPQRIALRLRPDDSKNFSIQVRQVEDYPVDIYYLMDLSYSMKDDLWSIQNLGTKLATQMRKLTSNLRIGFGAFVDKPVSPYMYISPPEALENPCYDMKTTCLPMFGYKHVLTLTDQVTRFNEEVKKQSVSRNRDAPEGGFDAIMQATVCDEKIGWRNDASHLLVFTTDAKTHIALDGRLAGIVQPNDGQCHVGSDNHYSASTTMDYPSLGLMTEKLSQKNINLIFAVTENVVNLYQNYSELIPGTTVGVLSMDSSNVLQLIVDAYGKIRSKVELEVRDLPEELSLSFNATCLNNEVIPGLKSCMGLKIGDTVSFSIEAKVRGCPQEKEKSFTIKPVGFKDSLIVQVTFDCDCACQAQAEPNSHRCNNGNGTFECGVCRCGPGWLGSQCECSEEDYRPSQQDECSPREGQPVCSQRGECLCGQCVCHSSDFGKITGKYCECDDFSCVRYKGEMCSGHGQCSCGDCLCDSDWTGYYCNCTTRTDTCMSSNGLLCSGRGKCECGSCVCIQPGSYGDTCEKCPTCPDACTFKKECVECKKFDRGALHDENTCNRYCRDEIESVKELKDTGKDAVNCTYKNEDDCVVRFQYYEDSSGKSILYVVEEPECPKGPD

Binder | adhesion of CHO cells to immobilized lectin domain [1] | fold binding against the combined lectin and EGF-like domains [2] [fold] | fold binding against the combined lectin and EGF-like domains (soluble integrin αvβ3) [fold]
B1 | 70% and > 90% | ~2 | ~2
B2 | 60% |  | 
